Measured values reported in patent US20230242624A1 (NEURIMMUNE, published 2023).

Assays:
[1] = target: T1, BSA (Sigma-Aldrich) (bovine, UniProt P02769 25-607); assay: direct ELISA on coated BSA
T1 construct: also called bovine serum albumin; BSA control

[2] = target: T2, SARS-CoV-2-S1 (RBD)-His protein (Trenzyme) (SARS-CoV-2, UniProt P0DTC2 319-541); assay: direct ELISA on coated RBD-His
[3] = target: T2, SARS-CoV-2-S1 (RBD)-His protein …; assay: iQue flow cytometry, antigen-coated beads
[4] = target: T3, MERS-CoV Spike protein fragment (RBD, aa 367-606, His tag) (MERS-CoV, UniProt K9N5Q8 367-606); assay: iQue flow cytometry, antigen-coated beads
T3 sequence: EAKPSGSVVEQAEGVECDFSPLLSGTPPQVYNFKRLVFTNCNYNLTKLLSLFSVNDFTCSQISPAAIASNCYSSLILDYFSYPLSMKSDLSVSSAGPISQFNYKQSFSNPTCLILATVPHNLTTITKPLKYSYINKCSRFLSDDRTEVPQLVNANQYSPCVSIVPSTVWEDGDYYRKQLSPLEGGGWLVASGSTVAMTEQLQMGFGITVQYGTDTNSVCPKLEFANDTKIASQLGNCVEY

[5] = target: T2, SARS-CoV-2-S1 (RBD)-His protein …; assay: competition ELISA, RBD binding to coated ACE2
[6] = target: recombinant SARS-CoV Spike protein (RBD, His tag) (SARS-CoV, UniProt P59594 306-527); assay: iQue flow cytometry, antigen-coated beads
[7] = target: SARS-CoV-2 Spike (S) protein on vesicular stomatitis virus (VSV) pseudoviruses (SARS-CoV-2, UniProt P0DTC2 14-1273); assay: cell-based or functional assay

Row | Binder | binding result [1] | EC50 [2] | EC50 [3] | EC50 [4] | IC50 [5] | EC50 [6] | IC50, pseudovirus entry assay (luciferase, HEK 293T-ACE2 cells) [7]
1 | NI-607.426_E2 (antibody, V domains shown) VH: EVQLVESGGGLVQPGGSLRLSCAASGFTFSSYDMHWVRQATGKGLEWVSAIGTAGDTYYPGSVKGRFTISRENAKNSLYLQMNSLRAEDTAVYYCARASFLDYSWLYFDYWGQGTLVTVSS VL: not shown | no binding (tested: 400 nM) | 0.03 nM | 2.06 nM | 600 nM | 10.7 nM | – | –
2 | NI-607.274_E5 (antibody, V domains shown) VH: EVQLVESGGGMVQPGRSLRLSCAGSGFTFSTHGMHWVRQAPGKGLEWITGITYDGSDEFYADSVKGRFTIARDNSKNMLYLQMNSLRAEDTAVYFCAKDLEWLTNYVDHWGQGTLVTVSS VL: DIVMTQSPGTLSVSPGERATLSCRASQSVNYNLAWYQQKPGQAPRLLIFDASTRATGIPARFTGSGSGTEFTLTISSLQSEDFAVYYCQQSNAWLTFGGGTKLEIK | no binding (tested: 400 nM) | 0.015 nM | 0.39 nM | 900 nM | 12.6 nM | 900 nM | –
3 | NI-607.820_B7 (antibody, V domains shown) VH: EVQLVESGGGLVQPGRSLRLSCAASGFTFDDFDMHWVRQAPGKGLEWVSGVTWNSGIIGYADSVKGRFTISRDNAKNSLYLQMNSLRAEDTALYYCAKEFYPRYGSGIRSHYFGMDVWGQGTTVTVSS VL: QSVLTQSPSASGTPGQRVTISCSGSSSNVGSNAVNWYQQLPGTAPKLLIYSNNRRPSGVPNRFSGSKSGTSASLAISGLQSDDEADYYCAAWDDSLDGPTFGGGTKLTVL | no binding (tested: 400 nM) | 0.082 nM | 9 nM | 800 nM | – | 800 nM | –
4 | NI-607.532_D8 (antibody, V domains shown) VH: EVQLVESGGGVVQPGRSLRLSCAASGFTFSSYGMHWVRQAPGKGLEWVAVISYDGSNKYYADSVKGRFTISRDNSKNTLYLQMNSLRAEDTAVYYCAKQGGGQYCSGGSCYSGYFDYWGQGTLVTVSS VL: not shown | – | 0.0051 nM | 14.4 nM | 1000 nM | – | 32 nM | –
5 | NI-607.531_D8 (antibody, V domains shown) VH: EVQLVESGGGLVQPGRSLRLSCAASGFIFDDYAMHWVRQAPGKGLEWVSGISWNSDSIGYADSVKGRFTISRDNAKNSLYLQMNSLRAEDTALYYCAKGSRSDWSNPSDYWGQGTLVTVSS VL: SYELTQPPSVSVAPGKTARITCGGNNIGSKSVHWYQQKPGQAPVLVVYDDSDRPSGIPERFSGSNSGNTATLTISRVEAGDEADYYCQVWDSSSDPVVFGGGTKLTVL | no binding (tested: 400 nM) | 0.0045 nM | 1.4 nM | 1000 nM | – | – | > 100 µg/mL
6 | NI-607.532_B6 (antibody, V domains shown) VH: QVQLVQSGAEVKKPGASVKVSCKASGYTFTSYDINWVRQATGQGLEWMGWMNPNSGNTGYAQKFQGRVTMTRNTSISTAYMELSSLRSEDTAVYYCARVVSLTGFFDYWGQGTLVTVSS VL: SYELTQPPSVSVAPGKTARITCGGNNIGSKNVHWYQQKPGQAPVLVVYDDSDRPSGIPERFSGSNSGNTATLTISRVEAGDEADYYCQVWDSSSDPWVFGGGTKLTVL | no binding (tested: 400 nM) | 0.0045 nM | 1.1 nM | 1000 nM | – | 4.2 nM | 100 µg/mL
7 | NI-607.275_C5 (antibody, V domains shown) VH: QVQLVESGGGLVQPGGSLRLSCAASGFTVSSNYMSWVRQAPGKGLEWVSVIYSGGSTYYADSVKGRFTISRDNSKNTLYLQMNSLRAEDTAVYYCARDFGDYYFDYWGQGTLVTVSS VL: not shown | no binding (tested: 400 nM) | 0.02 nM | 1.5 nM | 800 nM | 36.8 nM | – | –
8 | NI-607.791_B10 (antibody, V domains shown) VH: QVQLQQWGAGLLKPSETLSRTCAVYGGSFSDYYWSWIRQPPGKGLEWIGEVNHRGVTNYNPSLKSRVTISIDTSKSQFSLELRSVTDADTALYFCARSPFWTIAARPFDYWGRGTLVTVSS VL: EIVMTQSPGTLSLSPGERATLSCRASQSVISNYLAWYQQKPGQAPRFLIYAASTRARGIPDRFSGSGSGTDFTLTISRLEAEDFAVYYCQQYGNSPLTFGGGTKLEIK | no binding (tested: 400 nM) | 0.062 nM | 13.7 nM | 400 nM | – | 400 nM | –
9 | NI-607.531_E3 (antibody, V domains shown) VH: EVQLVESGGGVVQPGRSLRLSCAASGFTFSSYGMHWVRQAPGKGLEWVAVISYDGSNKYYADSVKGRFTISRDNSKNTLYLQMNSLRAEDTAVYYCAKQISGYNYPYYFDYWGQGTLVTVSS VL: not shown | no binding (tested: 400 nM) | 0.02 nM | 1.4 nM | 1000 nM | – | 2.6 nM | –
10 | NI-607.532_D4 (antibody, V domains shown, also called NI-607.532_D4C5) VH: QVQLVQSGAEVKRPGASVKVSCKASGYHFTDYYIHWVRQAPGQGLEWMGWINPNSGGTNYAQKFQGRVTMTRDTSISTAYMELSRLRSDDTAVYYCARVYYYDSSSFADYWGQGTLVTVSS VL: not shown | – | 0.0055 nM | 1 nM | 1000 nM | – | 1000 nM | –
11 | NI-607.426_D4 (antibody, V domains shown) VH: not shown VL: EIVLTQSPATLSLSPGERATLSCRASQSVSSYLAWYQQKPGQAPRLLIYDASNRATGIPARFSGSGSGTDFTLTISSLEPEDFAVYYCQQRSNWPPVTFGQGTRLEIK | no binding (tested: 400 nM) | 0.033 nM | 0.76 nM | 1000 nM | 24.4 nM | 1000 nM | –
12 | NI-607.531_E7 (antibody, V domains shown, also called F31 E7) VH: EVQLVESGGGVVQPGRSLRLSCAASGFTFNFYSMHWVRQVPGKGLEWVAVISFDGSTKHYAESLRGRFAVSRDNSKSTLYLQMNSLRPEDTAVYYCASPPLSPIPAAGTPLDYWGQGTLVTVSS VL: EIVMTQSPDSLAVSLGERATINCKSSQSIFYRSDDKDFLAWYQQKPGQPPKLLISWASTRESGVPDRFSGSGSGTDFTLTISSLQAEDVAVYYCQQFYYTPFTFGPGTKLEIK | – | 0.027 nM | 1.3 nM | 800 nM | 3.67 nM | 600 nM | 3.9 µg/mL
13 | NI-607.649_G7 (antibody, V domains shown) VH: QVQLVESGGGLVQPGGSLRLSCAASGFTFSRYAMSWVRQAPGKGLEWVSAISGSGGSTYYADSVKGRFTISRDNSKNTLYLQINSLRAEDTAVYYCAKGVRWGVDYFDYWGQGTLVTVSS VL: not shown | – | 0.024 nM | 5.7 nM | 800 nM | – | 22.2 nM | > 100 µg/mL
14 | NI-607.820_B6 (antibody, V domains shown) VH: EVQLQESGPGLVKPSETLSLTCTVSGGSVSSGSYYWSWIRQPPGKGLEWIGYIYYSGSTNYNPSLKSRVTISVDTSKNQFSLKVSSVTAADTAVYYCARDSIVVVPAARPLYYGMDVWGQGTTVTVSS VL: not shown | no binding (tested: 400 nM) | 0.029 nM | 2.4 nM | 1000 nM | – | 60.2 nM | –
15 | NI-607.529_G4 (antibody, V domains shown) VH: QVQLQQWGAGLLKPSETLSLTCAVYGGSFSGYYWSWIRQPPGKGLEWIGEINHSGSTNYNPSLKSRVTISVDTSKNQFSLKLSSVTAADTAVYYCARASLYYSDSSGYSHPYYFDYWGQGTLVTVSS VL: QPVLTQPPSVSGAPGQRVTISCTGSSSNIGAGYDVHWYQQLPGTAPKLLIYGNSNRPSGVPDRFSGSKSGMSASLAITGLQAEDEADYYCQSYDSSLSGWVFGGGTKLTVL | no binding (tested: 400 nM) | 0.026 nM | 1.3 nM | 1000 nM | – | 10 nM | > 100 µg/mL
16 | NI-607.761_B7 (antibody, V domains shown) VH: EVQLVESGGGVVQPGRSLRLSCAASGFTFTRYGMHWVRQAPGKGLEWVAVIWYDGNNKNYEDSVRGRFTISRDNSKNTLFLQMNSLRAEDTAVYYCARGRRGGYSYGLFDYWGQGILVTVSS VL: AIRMTQSPSSLSASVGDRVTITCQASQDISNYLNWYQQKPGKAPKLLIYDASNLETGVPSRFSGSGSGTDFTFTISSLQPEDVATYSCQQYDNLPLTFGGGTKVEIK | no binding (tested: 400 nM) | 0.001 nM | 0.44 nM | 200 nM | 56 nM | 200 nM | –
17 | NI-607.532_C8 (antibody, V domains shown) VH: QVQLVESGGGLVKPGRSLRLSCTASGFTFGDYAMSWFRQAPGKGLEWVGFIRSKAYGGTTEYAASVKGRFSISRDDSKSIAYLQMNSLKTEDTAVYYCTRGWIVVVIEDAFDIWGQGTMVTVSS VL: not shown | no binding (tested: 400 nM) | – | – | 400 nM | – | 400 nM | –
